Earlier results as cited in paper PMC3064480.

Biological target: TβRII ED (Homo sapiens) (UniProt P37173)
Experiment: SPR

Chain of TGF-β1 (P01137 279-390): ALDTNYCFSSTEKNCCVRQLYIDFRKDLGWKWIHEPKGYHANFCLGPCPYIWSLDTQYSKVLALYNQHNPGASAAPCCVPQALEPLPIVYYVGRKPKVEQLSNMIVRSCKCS
Chain of TβRII ED (Homo sapiens) (P37173 23-166): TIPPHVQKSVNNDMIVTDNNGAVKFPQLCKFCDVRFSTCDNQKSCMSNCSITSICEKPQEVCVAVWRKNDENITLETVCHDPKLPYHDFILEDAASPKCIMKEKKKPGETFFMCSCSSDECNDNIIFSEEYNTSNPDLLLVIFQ

- Kd: 5 pM
Substance: TGF-β1 (from UniProt P01137)
